Reference: patent US20240082304A1 (published 2024)

Target: T1, CT83 peptide on HLA-A2 (human)
T1 peptide: KLVELEHTL
Assay: killing

B1: A2-CT83 TCR (TCR, V domains shown)
Valpha: GEDVEQSLFLSVREGDSSVINCTYTDSSSTYLYWYKQEPGAGLQLLTYIFSNMDMKQDQRLTVLLNKKDKHLSLRIADTQTGDSAIYFCAEKSGYSGAGSYQLTFGKGTKLSVIP
Vbeta: SAVISQKPSRDICQRGTSLTIQCQVDSQVTMMFWYRQQPGQSLTLIATANQGSEATYESGFVIDKFPISRPNLTFSTLTVSNMSPEDSSIYLCSVQDSEAFFGQGTRLTVV
  binding result: recognises
